Substitutions are numbered along the chain they refer to. Like-named read-outs stand apart in the source and are kept apart here.
B1: chimeric antibody Ch2G3 (antibody, V domains shown)
VH: QVQLKESGPGLVASSQSLSITCTVSGFSLSRYSVHWVRQPPGKGLEWLGMIWDGGNTDYNSALKSRLSISKDNSKSQVFLKMNSLQTDDTAMYYCARNPLYFSYAMDYWGQGTSVTVSS
VL: DIQMTQSTSSLSASLGDRVTISCRASQDISNYLNWYQQKPDGTVKLLIIYTSRLQSGVPSRFSGSGSGTDYSLTISNLEQEDIATYFCQQVNTFPFTFGSGTKLEIK
B2: chimeric antibody Ch4B5 (antibody, V domains shown)
VH: QVQLKQSGPGLVQPSQSLSITCTVSGFSLTSYGLHWFRQSPGKGLEWLGVIWSGGSTDYNAAFISRLSISKDDSKSQVFFKMNSLQADDTAIYYCAREEYDVWGTGTTVTVSS
VL: B1 VL with S7T, T8A, I49Y, Q55H, I83V, V91G, F94L, F96W, S100G
B3: murine monoclonal antibody m2G3 (antibody, V domains shown)
VH: B1 VH
VL: B1 VL
notes: Murine hybridoma monoclonal
B4: murine monoclonal antibody m4B5 (antibody, V domains shown)
VH: B2 VH
VL: B1 VL with S7T, T8A, I49Y, Q55H, I83V, V91G, F94L, F96W, S100G
notes: Murine hybridoma monoclonal
B5: humanized antibody hu4B5-V1 (antibody, human IgG1, V domains shown)
VH: QVQLQESGPGLVKPSETLSLTCTVSGFSLTSYGLHWIRQPPGKGLEWIGVIWSGGSTDYNAAFISRVTISVDTSKNQFSLKLSSVTAADTAVYYCAREEYDVWGQGTTVTVSS
VL: DIQMTQSPSSLSASVGDRVTITCRASQDISNYLNWYQQKPGKVPKLLIYYTSRLHSGVPSRFSGSGSGTDFTLTISSLQPEDVATYYCQQGNTLPWTFGGGTKVEIK
notes: hu4B5 VH0 + hu4B5 VL0
B6: humanized antibody hu4B5-V2 (antibody, human IgG1, V domains shown)
VH: B5 VH with V71K, D72E, T73D
VL: B5 VL
notes: hu4B5 VH1 + hu4B5 VL0; human IgG1 / human Kappa constant regions
B7: humanized antibody hu4B5-V4 (antibody, human IgG1, V domains shown)
VH: B5 VH with Q5K, I37F, V71K, D72E, T73D, N76S, F78V
VL: B5 VL
notes: hu4B5 VH3 + hu4B5 VL0; human IgG1 / human Kappa constant regions
B8: humanized antibody hu4B5-V6 (antibody, human IgG1, V domains shown)
VH: B5 VH
VL: B5 VL with F71Y
notes: hu4B5 VH0 + hu4B5 VL1; human IgG1 / human Kappa constant regions
B9: humanized antibody hu4B5-V8 (antibody, human IgG1, V domains shown)
VH: B5 VH with V71K, D72E, T73D
VL: B5 VL with F71Y
notes: hu4B5 VH1 + hu4B5 VL1; human IgG1 / human Kappa constant regions
B10: humanized antibody hu4B5-V10 (antibody, human IgG1, V domains shown)
VH: B5 VH with Q5K, I37F, V71K, D72E, T73D, N76S, F78V
VL: B5 VL with F71Y
notes: hu4B5 VH3 + hu4B5 VL1; human IgG1 / human Kappa constant regions
B11: humanized antibody hu4B5-V14 (antibody, human IgG1, V domains shown)
VH: B5 VH with Q5K, I37F, I48L, V67L, V71K, D72E, T73D, N76S, F78V
VL: B5 VL with K42G, V43T, P44V, F71Y, Y87F
notes: hu4B5 VH4 + hu4B5 VL4; human IgG1 / human Kappa constant regions
B12: humanized antibody hu4B5-V15 (antibody, human IgG1, V domains shown)
VH: B5 VH
VL: B5 VL with K42G, F71Y
notes: hu4B5 VH0 + hu4B5 VL2; human IgG1 / human Kappa constant regions
B13: humanized antibody hu4B5-V16 (antibody, human IgG1, V domains shown)
VH: B5 VH with V71K, D72E, T73D
VL: B5 VL with K42G, F71Y
notes: hu4B5 VH1 + hu4B5 VL2; human IgG1 / human Kappa constant regions
B14: humanized antibody hu4B5-V18 (antibody, human IgG1, V domains shown)
VH: B5 VH
VL: B5 VL with K42G, F71Y, P80Q
notes: hu4B5 VH0 + hu4B5 VL3; human IgG1 / human Kappa constant regions
B15: humanized antibody hu4B5-V19 (antibody, human IgG1, V domains shown)
VH: B5 VH with V71K, D72E, T73D
VL: B5 VL with K42G, F71Y, P80Q
notes: hu4B5 VH1 + hu4B5 VL3; human IgG1 / human Kappa constant regions
B16: humanized antibody hu4B5-V21 (antibody, human IgG1, V domains shown)
VH: B5 VH with Q5K, I37F, V71K, D72E, T73D, N76S, F78V
VL: B5 VL with K42G, F71Y, P80Q
notes: hu4B5 VH3 + hu4B5 VL3; human IgG1 / human Kappa constant regions
B17: humanized antibody hu4B5-V22 (antibody, human IgG1, V domains shown)
VH: B5 VH
VL: B5 VL with K42G, V43T, P44V, F71Y, Y87F
notes: hu4B5 VH0 + hu4B5 VL4; human IgG1 / human Kappa constant regions
B18: humanized antibody hu4B5-V23 (antibody, human IgG1, V domains shown)
VH: B5 VH with V71K, D72E, T73D
VL: B5 VL with K42G, V43T, P44V, F71Y, Y87F
notes: hu4B5 VH1 + hu4B5 VL4; human IgG1 / human Kappa constant regions
B19: humanized antibody hu4B5-V25 (antibody, human IgG1, V domains shown)
VH: B5 VH with Q5K, I37F, V71K, D72E, T73D, N76S, F78V
VL: B5 VL with K42G, V43T, P44V, F71Y, Y87F
notes: hu4B5 VH3 + hu4B5 VL4; human IgG1 / human Kappa constant regions
B20: humanized antibody 2G3-hu3 (antibody, human IgG1, V domains shown)
VH: QVQLQESGPGLVKPSETLSLTCTVSGYSISRYSVHWVRQPPGKGLEWIGMIWDGGNTDYNSALKSRFTISRDNSKNTLYLQMNSLRAEDTAVYYCARNPLYFSYAMDYWGQGTLVTVSS
VL: B5 VL with V43A, H55Q, F71Y, V83F, G91V, L94F, W96F, G100Q, V104L
notes: hu2G3 VH1 + hu2G3 VL2
B21: humanized antibody 2G3-hu1 (antibody, human IgG1, V domains shown)
VH: B20 VH
VL: DIQMTQSPSSLSASVGDRVTITCRASQDISNYLNWYQQKPDQSPKLLIIYTSRLQSGVPSRFSGSGSGTDYTLTISSLQPEDFATYYCQQVNTFPFTFGQGTKLEIK
notes: hu2G3 VH1 + hu2G3 VL1
B22: humanized antibody 2G3-hu5 (antibody, human IgG1, V domains shown)
VH: B20 VH with S61A, S74A
VL: B21 VL with D41G, Q42K, S43A, I49Y
notes: hu2G3 VH1.1 + hu2G3 VL2
B23: humanized antibody 2G3-hu7 (antibody, human IgG1, V domains shown)
VH: QVQLQESGPGLVKPSQTLSLTCTVSGFSLSRYSVHWVRQPPGKGLEWIGMIWDGGNTDYAAPVKGRFTISRDDSKNTLYLQMNSLKTEDTAVYYCARNPLYFSYAMDYWGQGTLVTVSS
VL: B21 VL with D41G, Q42K, S43A, I49Y
notes: hu2G3 VH1.2 + hu2G3 VL2
B24: humanized antibody 2G3-hu6 (antibody, human IgG1, V domains shown)
VH: B23 VH
VL: B21 VL
notes: hu2G3 VH1.2 + hu2G3 VL1
B25: humanized antibody 2G3-hu2 (antibody, human IgG1, V domains shown)
VH: QVQLQESGPGLVKPSETLSLTCTVSGGSISRYSVHWIRQPPGKGLEWIGMIWDGGNTDYNSALKSRVTISVDTSKNQFSLKLSSVTAADTAVYYCARNPLYFSYAMDYWGQGTLVTVSS
VL: B21 VL
notes: hu2G3 VH2 + hu2G3 VL1
B26: humanized antibody 2G3-hu4 (antibody, human IgG1, V domains shown)
VH: B25 VH
VL: B21 VL with D41G, Q42K, S43A, I49Y
notes: hu2G3 VH2 + hu2G3 VL2

Tests used:
[1] = biological target: T1, human OX40 (antigen of the ELISA of Example 4) (human, UniProt P43489 29-216, limits assumed); experiment: ELISA on human OX40 (Example 4, steps as in Example 2), OD450 against log concentration of antibody
T1 construct: either human OX40-His or human OX40-Fc-biotin
T1 sequence (looked up): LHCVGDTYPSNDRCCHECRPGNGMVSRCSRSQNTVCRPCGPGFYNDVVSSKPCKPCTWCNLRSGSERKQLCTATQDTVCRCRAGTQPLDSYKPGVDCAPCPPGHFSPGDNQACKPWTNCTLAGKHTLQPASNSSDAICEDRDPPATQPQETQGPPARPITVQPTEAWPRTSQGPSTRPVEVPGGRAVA

[2] = biological target: T2, human OX40 on Jurkat-NF-Kb luc-hOX40 cells (human, UniProt P43489 29-277); experiment: cell-based or functional assay
T2 sequence (looked up): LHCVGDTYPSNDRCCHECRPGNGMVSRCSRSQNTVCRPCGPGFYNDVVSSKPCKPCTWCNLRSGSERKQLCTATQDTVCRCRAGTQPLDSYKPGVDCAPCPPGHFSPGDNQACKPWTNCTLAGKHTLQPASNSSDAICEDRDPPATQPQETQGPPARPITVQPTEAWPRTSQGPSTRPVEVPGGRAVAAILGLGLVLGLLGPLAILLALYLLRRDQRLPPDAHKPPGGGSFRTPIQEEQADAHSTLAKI

[3] = biological target: T3, human OX40-FC-biotin (human OX40 recombinant protein with Fc tag, Acro Biosystems OX40-H5255, labeled with … (human, UniProt P43489 29-216, labeled with biotin (site not stated))); experiment: capture ELISA, biotin-OX40-Fc
T3 construct: range 29-216; Bought (Acro Biosystems OX40-H5255; printed once as OXO-H5255), expressed in HEK293; also called human Bio-OX40-FC; not shown: Fc tag of the bought protein
T3 sequence (looked up): T1 sequence (looked up)
Description: 20xPBS buffer was diluted to 1 xwith deionized water. […] 100 μL of the diluted primary antibody was added to each well (the antibody to be tested was 5-fold diluted from the concentration of 10000 ng/ml, resulting in seven gradients, namely 10000 ng/ml, 2000 ng/ml, 400 ng/ml, 80 ng/ml, 16 ng/ml, 3.2 ng/ml, and 0.64 ng/ml, blank wells merely contained dilution solution, i.e., 2.5% skimmed milk in PBST), and incubated at 37° C. for 40 minutes. The plate was washed for 4 times with PBST, human OX40-FC-biotin (Acro biosystem, OXO-H5255, labeled biotin) was diluted with 2.5% skimmed milk in PBST, 100 μl was added to each well, incubated at 37° C. for 40 min, and the plate was washed for 4 times with PB ST. 100 μL TMB developing solution was added to each well, incubated for 3-15 minutes in dark at room temperature, 50 μl stop solution (1M sulfuric acid) was added to each well. The parameters were set for the microplate reader, the OD value was read at 450-630nm, and the test data were saved.

[4] = biological target: T1, human OX40 (antigen of the ELISA of …); experiment: ELISA on human OX40 (Example 4, steps as in Example 2), OD450 against log concentration of antibody; remark: listed apart in the source

Row | Binder | EC50 [3] [µg/mL] | binding result [3] | other results
1 | B1 |  |  | EC50 (read off the curve) [1]: ~0.01 µg/mL; EC50 (nM), in vitro activation of reporter gene (luciferase, Jurkat-NF-Kb luc-hOX40 cells with Raji cells, anti-CD3 coated) [2]: 0.637 nM
2 | B2 | 0.208 |  | EC50 (read off the curve) [4]: ~0.02 µg/mL; EC50 (nM), in vitro activation of reporter gene (luciferase, Jurkat-NF-Kb luc-hOX40 cells with Raji cells, anti-CD3 coated) [2]: 0.559 nM
3 | B3 | 0.867 |  | EC50 (read off the curve) [1]: ~0.03 µg/mL
4 | B4 | 0.58 |  | EC50 (read off the curve) [4]: ~0.04 µg/mL
5 | B5 | 0.59 |  | 
6 | B6 |  | binds | 
7 | B7 |  | binds | 
8 | B8 |  | binds | 
9 | B9 |  | binds | 
10 | B10 | 0.76 |  | 
11 | B11 | 0.536 |  | 
12 | B12 |  | binds | 
13 | B13 |  | binds | 
14 | B14 |  | binds | 
15 | B15 |  | binds | 
16 | B16 |  | binds | 
17 | B17 |  | binds | 
18 | B18 |  | binds | 
19 | B19 |  | binds | 
20 | B20 |  | binds | 
21 | B21 | 0.886 |  | 
22 | B22 |  | binds | 
23 | B23 | 0.743 |  | 
24 | B24 | 0.82 |  | 
25 | B25 | 1.6 |  | 
26 | B26 | 2.27 |  | 
